Test results taken from the supplement of paper PMC7877785.
± gives the uncertainty stated by the source.

Experiment: self-splicing fitness, log relative to wild type (ln ratio); higher = more splicing; Tetrahymena group I intron in knt gene, E. coli kanamycin selection, DiMSum; sequences stand for … in CUCUCU…GGAGGGAAAAGUUAUCAGGCAUGCACCUGGUAGCUAGUCUUUAAACCAAUAGAUUGCAUCGGUUUAAAAGGCAAGACCGUCAAAUUGCGGGAAAGGGGUCAACAGCCGUUCAGUACCAAGUCUCAGGGGAAACUUUGAGAUGGCCUUGCAAAGGGUAUGGUAAUAAGCUGACGGACAUGGUCCUAACCACGCAGCCAAGUCCUAAGUCAACAGAUCUUCUGUUGAUAUGGAUGCAGUUCACAGACUAAAUGUCGGUCGGGGAAGAUGUAUUCUUCUCAUAAGAUAUAGUCGGACCUCUCCUUAAUGGGAGCUAGCGGAUGAAGUGAUGCAACACUGGAGCCGCUGGGAACUAAUUUGUAUGCGAAAGUAUAUUGAUUAGUUUUGGAGUACUCGUGGUCG
How it was run: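 Pooled colonies went to amplicon sequencing on an Illumina HiSeq 2500 after six replicate transformations. The plates were LB agar with 100 μg/mL carbenicillin, 50 μM IPTG and 0.2% rhamnose, with or without 25 μg/mL kanamycin, incubated overnight at 37°C or 30°C. The E. coli BL21(DE3) library had all eight P1ex-region intron nucleotides randomised, the intron placed in the knt kanamycin-resistance gene on pET-22b(+). DiMSum fitness is the error-weighted combination of replicate fold changes, kanamycin against none, normalised to wild type.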

| Sequence | self-splicing fitness (ln) (30 °C) | self-splicing fitness (ln) (37 °C) |
| --- | --- | --- |
| UAUCAGCAAUAUUACGAGUU | -2.58 ± 0.1 | -0.829 ± 0.089 |
| AGGGAGCAAUAUUACGGCGC | -2.78 ± 0.5 | -1.23 ± 0.35 |
| CAGUAGCAAUAUUACGAAUG | -1.36 ± 0.1 | -0.492 ± 0.11 |
| GUCUAGCAAUAUUACGCCGA | -1.65 ± 0.19 | -0.506 ± 0.15 |
| CUUGAGCAAUAUUACGCAUG | -2.7 ± 0.21 | -1.3 ± 0.44 |
| CCUAAGCAAUAUUACGUUCU | -2.57 ± 0.16 | -3.16 ± 0.34 |
| UGCAAGCAAUAUUACGAUGG | -1.25 ± 0.1 | -0.29 ± 0.12 |
| GCAUAGCAAUAUUACGUCGU | -3.44 ± 0.17 | -1.06 ± 0.13 |
| CGGAAGCAAUAUUACGGAUU | -4.05 ± 0.2 | -2.36 ± 0.13 |
| CAACAGCAAUAUUACGUUGC | -4.78 ± 0.36 | -1.54 ± 0.14 |
| UUAGAGCAAUAUUACGACAU | -1.894 ± 0.018 | -1.19 ± 0.036 |
| UGUAAGCAAUAUUACGAAUA | -0.825 ± 0.21 | -0.536 ± 0.23 |
| UUUCAGCAAUAUUACGCACG | -1.05 ± 0.12 | -0.0521 ± 0.13 |
| GUUAAGCAAUAUUACGAGGG | -3.99 ± 0.21 | -3.08 ± 0.25 |
| AUUGAGCAAUAUUACGACGG | -4.09 ± 0.31 | -3.4 ± 0.26 |
| GUUAAGCAAUAUUACGCGUA | -1.2 ± 0.17 | -0.453 ± 0.25 |
| CUCGAGCAAUAUUACGGUGU | -2.83 ± 0.33 | -2.7 ± 0.31 |
| CCGUAGCAAUAUUACGGAGA | -3.01 ± 0.28 | -2.32 ± 0.38 |
| ACCUAGCAAUAUUACGCGAC | -2.55 ± 0.2 | -0.855 ± 0.19 |
| CAUAAGCAAUAUUACGAAAU | -3.7 ± 0.2 | -2.68 ± 0.22 |
| CAGCAGCAAUAUUACGCGGA | -2.58 ± 0.14 | -1.14 ± 0.11 |
| GGGGAGCAAUAUUACGGCUG | -2.72 ± 0.15 | -1.09 ± 0.22 |
| CACAAGCAAUAUUACGCAAU | -3.31 ± 0.23 | -3.31 ± 0.26 |
| AGCAAGCAAUAUUACGUAGG | -2.75 ± 0.1 | -2.1 ± 0.12 |
| AUGUAGCAAUAUUACGGCAC | -1.59 ± 0.18 | 0.329 ± 0.18 |
| AUCUAGCAAUAUUACGGGUA | -1.97 ± 0.15 | -1.49 ± 0.12 |

| Sequence | self-splicing fitness (ln) (30 °C) | self-splicing fitness (ln) (37 °C) |
| --- | --- | --- |
| AAGCAGCAAUAUUACGGGCU | -1.64 ± 0.14 | -1.93 ± 0.21 |
| CAAAAGCAAUAUUACGUAGC | -3.1 ± 0.13 | -2.61 ± 0.24 |
| UAACAGCAAUAUUACGCCUA | -0.308 ± 0.064 | 0.598 ± 0.083 |
| ACUAAGCAAUAUUACGAGCG | -0.928 ± 0.084 | 0.115 ± 0.14 |
| GUAAAGCAAUAUUACGGCGC | 0.572 ± 0.13 | -0.000459 ± 0.14 |
| ACAUAGCAAUAUUACGGGUG | -1.25 ± 0.046 | -0.515 ± 0.064 |
| CUGAAGCAAUAUUACGUUAA | -3.39 ± 0.16 | -2.65 ± 0.28 |
| GUCGAGCAAUAUUACGUAGU | -2.34 ± 0.12 | -1.47 ± 0.11 |
| AAUGAGCAAUAUUACGUAUC | -3.14 ± 0.21 | -1.14 ± 0.17 |
| ACUGAGCAAUAUUACGACAC | -3.62 ± 0.2 | -2.07 ± 0.24 |
| GUUCAGCAAUAUUACGGUAA | -1.21 ± 0.07 | -0.563 ± 0.07 |
| CCCCAGCAAUAUUACGACGC | -3.17 ± 0.25 | -3.22 ± 0.35 |
| AUAAAGCAAUAUUACGACCG | -0.25 ± 0.13 | -0.14 ± 0.18 |
| CGGUAGCAAUAUUACGGGAU | -3.86 ± 0.47 |  |
| AACUAGCAAUAUUACGGCAG | -1.09 ± 0.094 | -0.755 ± 0.095 |
| GCUAAGCAAUAUUACGAAAA | -1.27 ± 0.15 | -1.6 ± 0.17 |
| AUAUAGCAAUAUUACGCUGA | -1.3 ± 0.2 | -1.15 ± 0.24 |
| GGGAAGCAAUAUUACGGGGG | -4.18 ± 0.35 | -3.18 ± 0.32 |
| GCCAAGCAAUAUUACGACUA | -1.82 ± 0.17 | -1.77 ± 0.16 |
| UGGUAGCAAUAUUACGCGAA | -0.913 ± 0.11 | -0.833 ± 0.11 |
| CCAAAGCAAUAUUACGAGGG | -3.76 ± 0.22 | -1.56 ± 0.16 |
| CCUCAGCAAUAUUACGUAGU | -2.16 ± 0.066 | -0.762 ± 0.075 |
| AGAAAGCAAUAUUACGUGAU | -2.17 ± 0.069 | -1.25 ± 0.091 |
| CGCUAGCAAUAUUACGAGUA | -0.852 ± 0.11 | -0.525 ± 0.11 |
| GAAAAGCAAUAUUACGUACA | -0.498 ± 0.066 | -0.0587 ± 0.082 |
| GUUCAGCAAUAUUACGAUGG | -3.81 ± 0.29 | -2.31 ± 0.25 |

| Sequence | self-splicing fitness (ln) (30 °C) | self-splicing fitness (ln) (37 °C) |
| --- | --- | --- |
| ACUAAGCAAUAUUACGUGCC | -1.22 ± 0.13 | -0.754 ± 0.14 |
| AGAAAGCAAUAUUACGCCUG | -0.436 ± 0.11 | -0.62 ± 0.14 |
| UCCCAGCAAUAUUACGUCUU | -2.99 ± 0.14 | -2.76 ± 0.2 |
| GACUAGCAAUAUUACGGGUA | -0.752 ± 0.076 | -0.669 ± 0.078 |
| UGACAGCAAUAUUACGUGCU | -4.32 ± 0.24 | -1.04 ± 0.11 |
| GAGUAGCAAUAUUACGCGGC |  | -1.74 ± 0.45 |
| CAUGAGCAAUAUUACGGGGU | -3.25 ± 0.3 | -3.38 ± 0.33 |
| UACUAGCAAUAUUACGCCGA | -1.25 ± 0.19 | -0.403 ± 0.17 |
| ACUCAGCAAUAUUACGGCUC | -0.59 ± 0.09 | -0.761 ± 0.12 |
| AUGUAGCAAUAUUACGAGGC |  | -1.47 ± 0.28 |
| GCAAAGCAAUAUUACGACGG | -2.23 ± 0.13 | -1.2 ± 0.2 |
| CACGAGCAAUAUUACGCCAC | -2.97 ± 0.38 | -1.02 ± 0.34 |
| UGCCAGCAAUAUUACGCAUG | -1.28 ± 0.085 | -1.43 ± 0.13 |
| GUCGAGCAAUAUUACGGCCU | -2.83 ± 0.34 |  |
| CACUAGCAAUAUUACGGACA | -1.84 ± 0.16 | -1.99 ± 0.18 |
| UAAGAGCAAUAUUACGAUAC | -3.55 ± 0.26 | -3.09 ± 0.4 |
| GAAAAGCAAUAUUACGUGGU | -3.58 ± 0.17 | -2.79 ± 0.2 |
| UGAUAGCAAUAUUACGACCG | 0.139 ± 0.13 | 0.451 ± 0.17 |
| ACCUAGCAAUAUUACGAAAU | -2.9 ± 0.16 | -0.321 ± 0.15 |
| GCAGAGCAAUAUUACGUGGG | -3.55 ± 0.12 | -3.03 ± 0.15 |
| UCCGAGCAAUAUUACGGAGG | -2.66 ± 0.16 | -2.65 ± 0.24 |
| UCAUAGCAAUAUUACGGAUC | -3.73 ± 0.28 | -2.38 ± 0.22 |
| AGGAAGCAAUAUUACGAAAU | -3.06 ± 0.2 | -1.53 ± 0.18 |
| CAUCAGCAAUAUUACGGAUU | -0.959 ± 0.062 | -0.143 ± 0.077 |
